The target of data set [1] is pyridoxal-5′-phosphate (PLP-) dependent C-S lyase from Corynebacterium diphtheriae (Corynebacterium diphtheriae). Briefly: SEC; analytical Superdex 200 HR 10/30, 20 mM sodium phosphate pH 7.2, 150 mM NaCl, 0.1 mL/min; calibrated with mass standards 12.4-669 kDa; apparent mass 85 kDa against about 44 kDa for the subunit. Background: In gel filtration, larger molecules generally elute earlier.

Data set [2] has as its system N[C@@H](CCSC[C@H](N)C(=O)O)C(=O)O. Briefly: steady-state kinetics, Km. In kind it is biochemical, Corynebacterium diphtheriae. The note with it: PLP; pH 9.0; 30.0 °C.
The subject of another data set is N[C@@H](CS)C(=O)O. Briefly: purified protein. The note with it: PLP.
Data set [3] deals with N[C@@H](CCSC[C@H](N)C(=O)O)C(=O)O. Kind of data set: purified protein. The note with it: PLP; pH 9.0; 30.0 °C.
The next data set has as its target T1, C-S lyase (Corynebacterium diphtheriae, UniProt Q6NFZ9).
T1 construct: gene aecD; recombinant His-tagged apoenzyme
Kind of data set: fluorescence titration of apoenzyme (emission at […] nm). In kind it is binding.

The values below come from article PMC3784150, “Characterization of C-S Lyase from C. diphtheriae: A Possible Target for New Antimicrobial Drugs” (BioMed Research International, 2013).

By stoichiometry N is commonly meant a count of units in the complex or per binding partner. For orientation: Km means the substrate concentration at which the rate is half of its maximum. The kcat is the maximal rate divided by the concentration of active sites. A word on the Kd: it is the free concentration of one partner at which half of the binding sites on the other are occupied at equilibrium, for simple one-to-one binding. A lower Kd goes with tighter binding.

Consider “pyridoxal-5′-phosphate (PLP-) dependent C-S lyase from Corynebacterium diphtheriae (enzyme)”, for which the stoichiometry N in data set [1] amounted to 2. As for “C-S lyase (Corynebacterium diphtheriae NCTC 13129; Y114F)”, in data set [2], the Km was 200 ± 10 µM and the catalytic constant (kcat) came to 1.2 ± 0.02 s⁻¹. Regarding “C-S lyase (Corynebacterium diphtheriae NCTC 13129)”, the Km in the data set on N[C@@H](CS)C(=O)O was 950 ± 180 µM. Further, in data set [3], the Km is 1070 ± 220 µM and the turnover number (kcat) worked out at 92.7 ± 4.44 s⁻¹. Take `Cc1ncc(COP(=O)(O)O)c(C=O)c1O` [PLP, pyridoxal-5′-phosphate]: at C-S lyase, binding was characterised by a dissociation constant (Kd) of 90 ± 30 nM.
